From the RNAGym collection of RNA variant scans (doi:10.1073/pnas.2313332121)

B1: TPR t1 (parent)
chain: GACCAAUCUGCCCUCAGAGCUCGAGAACAUCUUCGGAUGCAGAGGAGGCAGGCUUCGGUGGCGCGAUAGCGCCAACGUCCUCAACCUCCAAUGCAUCCCACCACAUGAUGAUGCCUGAAGAGCCUUGGUUUUUUG

Variants of: B1
Assay: polymerase ribozyme fitness, log enrichment relative to wild type (log ratio); higher = more active; in vitro selection for triplet polymerase activity
Method in brief: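 PCR was used to build mutant libraries for each subunit of a heterodimeric triplet polymerase ribozyme, which were then transcribed. A single in vitro selection round, in triplicate, used a frozen incubation at −7 °C and recovered extended constructs by gel excision, streptavidin beads and RT-PCR. Fitness is the logarithm of genotype enrichment relative to wild-type enrichment, averaged over replicates with inverse-variance weights. The logarithm is base 2, and after Illumina sequencing only genotypes with ≥10 input reads and ≥1 read per output were kept.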

Variant	polymerase ribozyme fitness (log ratio)
GACCAAUCUGCCCUCAGAGCUCGAGAACAUCUUCGGAUGCGGAGGAGGCAGGCUUCGGUGGCGCGAUAGUGCCAACGCCCUCAACCUCCAAUGCAUCCCACCACAUGAUGAUGCCUGAAGAGCCUUGGUUUUUUG	-0.997
GACCAAUCUGCCCUCAGAGCUCGAGAACAUCUUCGGAUGCCGAGGGGGCAGGCUUCGGUGGCGCGAUAGCGCCAACGUCCUCAACCUCCAAUGCAUCCCACCACAUGAAGAUGCCUGAAGAGCCUUGGUUUUUUG	-7.53
GACCAAUCUGCCCUCAGAGCUCGAGAACAUCUUCGGAUGCCGAGGAGGCAGGCUUCGGUGGCGCGAUAUCGCCAACGUCCUCAACCUCCAAUGCAUCCCACCACAUGAUGAUGCCUGAAGAGCCUUGGUUUUUUG	-0.161
GACCAAUCUGCCCUCAGAGCUCGAGAACAUCUUCGGAUGCCGAGGAGGCAGGCUUCGGUGGCGCGAUAGUCCCAACGUCCUCAACCUCCAAUGCAUCCCACCACAUGAUGAUGCCUUAAGAGACUUGAUUUUUUG	-6.8
GACCAAUCUGCCCUCAGAGCUCGAGAACAUCUUCGGAUGCCGAGGAGGCAGGCUUCGGUGGCGCGAUAGCGCCAACGUCCUCAACCUCCAAUGCAUCCCACCACAGGAUGAUGUCUGAAGAGCCUUGGUAUUUUG	-4.41
GACCAAUCUGCCCUCAGAGCUCGAGAACAUCUUCGGAUGCCGAGGAGGCAGGCUUCGGUGGCGCGAUAUCGCCAACGUCCUCAACCUCCAAUGCAUCCCACCACAUGAUGACGCCUGAAGAGCCUUGGUUUUUUG	0.865
GACCAAUCUGCCCUCAGAGCUCGAGAACAUCUUCGGAUGCCGAGGAGGCAGGCUUCGGUGGCGCGAUAGUGCCAACGUCCUCAAUCUCCAAUGCAUCCCACCACAUGAUGAUGCCUGAAGAGCCUUGGUUUUUUG	-2.92
GACCAAUCUGCCCUCAGAGCUCGAGAACAUCUUCGGAUGCCGAGGAGGCAGGCUUCGGUGGCGCGAUAGCGCCAACGUCCUCAACCUCCAAUGCAUCCCACCACAUGAUGAUGCCUCAAGAGCCUUGGUUUUUUG	-4.47
GACCAAUCUGCCCUCAGAGCUCGAGAACAUCUUCGGAUGCCGAGGAGGCAGGCUUUGGUGGCGCGAUAGCGCCAACGUCCUCAACCUCCAAUGAAUCCCACCACAUGAUGAUGCCUGAAGAGCCUUGGUUUUUUG	-3
GACCAAUCUGCCCUCAGAGCUCGAGAACAUCUUCGGAUGCCGAGGAGGCAGGGUUCGGUGGCGCGAUAGCGCCAACGUCCUCAAACUCCAAUGCAUCCCACCACAUGAUGUAGCCCGAAGAGCCUUGGUUUUUUG	-6.24
GACCAAUCUGCCCUCAGAGCUCGAGAACAUCUUCGGAUGCGGAGUAGGCAGGCUUGGGUGGCGCGAUAGCGCCAACGUCCUCAACCUCCAAUGCAUCCCACCACAUGAUGAUGCCUGAAGAGCCUUGGUUUUUUG	-0.725
GACCAAUCUGCCCUCAGAGCUCGAGAACAUCUUCGGAUGCCGAGUAGGCAGGCUUCGGUGGCGCGAUAGCGCCAACGUCCUCAACCUCCAAUGCAUCCCACCACAUGAUGAUGCCUGAAGAGCAUGGGUUUUUUG	-1.66
GACCAAUCUGCCCUCAGAGCUCGAGAACAUCUUCGGAUGCGGACGAGGCAGGCUUCGGUGGCACGAUAGCGCCAACGUCCUCAACCUCCAAUGCAUCCCACUACAUGAUGAUGCCUGAAGAGCAUUGAUUUUUUG	-4.69
GACCAAUCUGCCCUCAGAGCUCGAGAACAUCUUCGGAUGCGGAGGAGGCAGGCUUCGGUGGCGCGAUAGCGCCAACGUCCUCAACCUCCAAUGCAUCCCACCAUAUGAUGAUGCCUGAAGAGCCUUGGUUUUUUG	0.737
GACCAAUCUGCCCUCAGAGCUCGAGAACAUCUUCGGAUGCCGAGGAGGCAGGCUUCGGUGGCGCGAUAGCUCCAACGUCCUCAACCUCCAAUGCAUCCCACCACAUGAUGAUGCCUGAAGAGCCUUGGUUUUUUG	-0.988
GACCAAUCUGCCCUCAGAGCUCGAGAACAUCUUCGGAUGCGGAGGAGUCAGGCUUCGGUGGAGCGAUAGCGCCAACGUCUUCAACCUCCAUUGCAUCUCACCACAUGAUGAUGCCUGAAGAGACUUGGUUUUUUG	-7.74
GACCAAUCUGCCCUCAGAGCUCGAGAACAUCUUCGGAUGCCGAGGAGGCAGGCUUCGGUGCCGCGAUAGCGCCAACGUCCUCAACCUCCAAUCCAUCCCACCACAUGAUGAUGCCUGAAGAGCCUUGGUUUUUUG	-4.23
GACCAAUCUGCCCUCAGAGCUCGAGAACAUCUUCGGAUGCGGAGGAGGCAGGCUUCGGUGGCGAGAUAGCGCCAACGUCCUCAACCUCCAAUGCAUCCCACCACAUGAUGAUGCCUGAAGAGCCUUGGUUUUUUG	-7.34
GACCAAUCUGCCCUCAGAGCUCGAGAACAUCUUCGGAUGCGGAAGAGGCAGGCUUCGGUGGAGCGAUAGCGCCAACGUCCUCAACCUCCAAUGCAUCCCACCACAUGAUGAUGCCUGAAGAGCCUUGGUUGUUUG	-3.51
GACCAAUCUGCCCUCAGAGCUCGAGAACAUCUUCGGAUGCCGCGGAGGCAGGCUUCGGUGGCGCGAUAGCGGCAACGUCCUCAACCUACAAUUCAUCCAACAACAUGAUGAUGCCUGAAGAGCAUUGGUUUUUUG	-7.15
GACCAAUCUGCCCUCAGAGCUCGAGAACAUCUUCGGAUGCCGAGGAGGCAGGCUUCGGUGGCGCGAUAGCGCCAACGUCGUCAACCUCCAAUGCAUCCCACCACAUGAUGAUGCCUGAAGGGCCUUGGUUUAUUG	-4.51

Variant	polymerase ribozyme fitness (log ratio)
GACCAAUCUGCCCUCAGAGCUCGAGAACAUCUUCGGAUGCCGAGGAGGCAGGCUUCGGUGGCGCGAUAGCGCCAACGUCCUCAACCUCCAAUGCAUCCCACCACAUGAUGAUCCCUGAAGAGCUUUGGUUUUUUG	-3.22
GACCAAUCUGCCCUCAGAGCUCGAGAACAUCUUCGGAUGCGGAGGAGGCAGGCUUCGGUGGCGCGAUAGCGCCAACGUCCUCAACCUCCGAUGCAUCCCACCACAUGAUGAUGCCUGAAGAGCCUUGGUUUUUUG	0.631
GACCAAUCUGCCCUCAGAGCUCGAGAACAUCUUCGGAUGCCGAGGAGGCAGGCUUCGGUGGCGCGAUAGCGCCAACGUCCUCAACCUCCAAUACAUCCCACCACAUGAUGAAGCCUGAAGAGCCUUGGUUUUUUG	-1.27
GACCAAUCUGCCCUCAGAGCUCGAGAACAUCUUCGGAUGCCGAGGAGGCAGGCUUCGGUGGCGCGAUAGCGCCAACGUCCUCAACCUCCAUUGCCUCCCACCACAUGAUGAUACCUGAAGAGCCUUGGUUUUUUG	-3.38
GACCAAUCUGCCCUCAGAGCUCGAGAACAUCUUCGGAUGCCGAGGAGGCAGGCUUCGGUGGCGCGAUAGCGCCAACGUCCUCAACCUCCAAUGCAUCCCACCACAUCAUGAUGCCUAAAGAGCCUUGGUUUUUUG	-6.25
GACCAAUCUGCCCUCAGAGCUCGAGAACAUCUUCGGAUGCCGAGGAGGCAGGCUUCGGUGGCGCGAUAGCGCCAACGUCCUCAACCUCCAAUGCAUCCCACCACAUGAUGAUACCUGAAGAGCGUUGGUUUUUUG	-1.49
GACCAAUCUGCCCUCAGAGCUCGAGAACAUCUUCGGAUGCGGAGGAGGCAGGCUUCGGUGGCGCGGUAGCGCCAACGUCCUCAACCUCCAAUGCAUCCCACCACAUGAUGAUGCCUGAAGAGCCUUGGUUUUUUG	-1.87
GACCAAUCUGCCCUCAGAGCUCGAGAACAUCUUCGGAUGCGUAGGAGGCAGGCUUCGGUGGCGCGAUAGCGCCAGCGUCCUCAACCUCCUAUGCAUCCCACCACAUGAUGAUGCCUGAAGAGCCUUGCAUUUUUG	-4.64
GACCAAUCUGCCCUCAGAGCUCGAGAACAUCUUCGGAUGUAGAGGAGGCAGGCUUCGGUGGCGCGAUAGCGCCAACGUCCUCAACCUCCAAUGCAUCCCACCACAUGAUGAUGCCGGAAGAGCCUUGGUUUUUUG	-2.61
GACCAAUCUGCCCUCAGAGCUCGAGAACAUCUUCGGAUGCCGAGGAGGCAGGCUUCGGUGGCGCGAUAGCGACAACGUCCUCAACCUCCAAUGCAUCCCACCACAUGAUGAUGCCUGAAGAGCCUUGGUUUUUUG	-2.08
GACCAAUCUGCCCUCAGAGCUCGAGAACAUCUUCGGAUGCGGAGGAGGCAGGCUUAGGUGGCGCGAUAGCGCCAACGUCCUCAACCUCCAAUGCAUCCCACUACAUGAUGAUGCCUGAAGAGCCUUGGUUUUUUG	-3.9
GACCAAUCUGCCCUCAGAGCUCGAGAACAUCUUCGGAUGCCGAGGAGGCAGGCUUCGGUGGCGCGAUAGAGCCAACGCCCUCAACCUCCAAUGCAUCCCACCACAUGAUGAUGCCUGAAGAGCCUUGUUUCUUUG	-4.08
GACCAAUCUGCCCUCAGAGCUCGAGAACAUCUUCGGAUGCGGAGGAGGCAGGAUUCGGUGGCGAGAUAGCGCCAACGUCCUCAACCUCCAAUGCAUCCCACCACAUGAUGAUGCCUGAAGGGCCUUGGUUUUUUG	-4.97
GACCAAUCUGCCCUCAGAGCUCGAGAACAUCUUCGGAUGCGGAGGAGGCAGGCUUCGGUAGCGCGAUAGCGCCAACGUCCUCAACCUCCAAUGCAUCCCACCACAUGAUGAUGCCUGAAGAGCCUUGGUUUUUUG	-0.408
GACCAAUCUGCCCUCAGAGCUCGAGAACAUCUUCGGAUGCGGAGGAGGCAGGUUUCGGUGGCGCGAUAGCGCCAACAUCCUCAACCUCCAAUGCAUCCCACCACAUGGUGAUGCCUGAAGAGCCUUGGUUUUUUG	-2.63
GACCAAUCUGCCCUCAGAGCUCGAGAACAUCUUCGGAUGCCGAGGAGGCAGGCUUCGGUGGCGCGAUAGCGCCAACGUCCUCAACCUCCAAUGCAUCCCACCACAUGAUGAUGCCUCAAGCGCCUUGGUUUUUUG	-6.19
GACCAAUCUGCCCUCAGAGCUCGAGAACAUCUUCGGAUGCCGAGGAGGCAGGCUUCGGUGGCGCGAUAGCGCCAACGUCAUCAACCUCCAAUGCAUCCCACCACAUAAUGAUGCCUUAAGAGCCUUGGCUUUUUG	-7.66
GACCAAUCUGCCCUCAGAGCUCGAGAACAUCUUCGGAUGCCGAGGAGGCAGGCUUCGGUGGCGCGAUAGCGACAACGUCCUCAACCUCCAAGGCAUCCCACCACAUGAUGAUGCCUGAAUAGCCUUGGCUUUUUG	-2.57
GACCAAUCUGCCCUCAGAGCUCGAGAACAUCUUCGGAUGCCGAGGAGGCAGACUUCGGUGGCGCGAUAGCGCCAACGUCCUGAACCUCCAAUGCAUUCCAGCACAUGAUGAUGCCUGUAGUGCCUUGGUUUUUUG	-2.61
GACCAAUCUGCCCUCAGAGCUCGAGAACAUCUUCGGAUGCGGAGGAGGCAGGCUUCAGUGGCGCGAUAGCGCCAACUUCCUCAACCUCCAAUGCAUCCCACCACAUGAUGAUGCCUGAAGAGACUUGCUUUUUUG	-2.56
GACCAAUCUGCCCUCAGAGCUCGAGAACAUCUUCGGAUGCCGAGGAGGCAGGCUUCGGUGGCGAGAUAGCGCCAACGUCCUCAACCUCCGAUGCAUCCCACCACAUGAUGAUGCCUGAAGAGCCUUGGUUUUUUG	-4.74
